Measured values reported in doi:10.1101/2022.05.06.490478 (bioRxiv, 2022).

B1: C. elegans TMC-1 with C-terminal 3C site-mVenus-3xFLAG (tmc-1::mVenus knock-in) (natural protein, UniProt D3KZG3 1-1285, looked up)
chain: MQEAARRASLRKEHTPTNEKFGDLSKQDSLGERASSKLTLDDELYDILYAFGETDAFINKGDKQRETDEDGNPLTRQALLERIRQKKEVIGKLRCQAWSMTRKRRTLKLAQKYLEQHESKVSRSHLYMEEMRKRARLMKRSFSNFKTYLIPWESKIKRIESHFGSVVSSYFTFLRWIVFVNIMITLIALVFVVLPETLADSVANEGRFNRTKTRKQIPANERVHADELAVVWHYDGYLRYSPLFYGYYSDDPFLGNKIKYALPLAYFMVTLTIFAYSFFAILRKMAANARMSKLSGSKAEQYIFNWKLFTGWDYTIGNSETASNTVMAVVIKLRESIADIKKDAHGKFRLLQFSLRVFANIIICAMLGFSIYCIIFAVQKSQVQDDGNLFTKNQVPSVVSTITHVFPMIFDLIGKMENYHPRTALRAHLGRVLILYTVNYITLIFALFEKMTALRDRVNSTSTSSSHRTKRQQGGWNPNMQRPPPYASRAEVRQMSDFLAANTRRFQTVSQRTTRSVTTPFTVAPQFGPFNVNNPNAVFHNGTHSTSFESQILGPKALPIFTPPPRKYPGFTPGNVGQQFGGPDFPRNQVYTKSTPLPRVRTKPPWVYTTTHPPLVQNRAMTTTMSKSAKKGNSKNLDDDILLSNETIQMSEAALRRNHDGHNNDICWETIIGQEIVKLVTMDLIFTILSILVIDLFRGLWIKYCSSWWCWDIETTFPEYGEFKVAENVLHIINNQGMIWLGLFFAPLLPAINNIKLIILMYIRGWAVMTCNVPAREIFRASRSSNFYLGILLIWLLLCTLPVGFVIASMSPSRSCGPFARYQHFYTVVTREIEKRVDQTVLSYIRHIASPGVVIPIILFLILIIYFLFSLVRGLREANTDLQAQLVHERTEEKKKIFELAGGKKNKFEKDRDKKRSNDYIPLIEQRRREPWRQYHEMEADHALASDSSEESDINEDEDDERQPLTAYPLRAIETPPETLQVTAFHPSLGSLIENREMEDEESASGDQLPMIHKSVSFQGPSHMQMRQSISTESCSQISRSAIQVATPEEIRALLRPYLEAKYGIPYQHGIKSFPIDVHTPPNNTPSRRSSKYNSFVSLYEHTRDDHKNFVASTIKETDEDPGKSDKKQTSSKDVAPDFMPWPSADEARALREKMKSKTPLMLTKTTVEEKPKGGKSSESEFRPPVPIHRKYNIQTTEEENEEEETDSAPESSKKRFRISVSPTKTIAPASASRAQHKIVSQASSSSSIPHGRQPDPNKKASLVLPPLRAPRVQFDEDDSPRQID
B2: C. elegans TMC-1 (pore-forming subunit of the native TMC-1 complex), after removal of mVenus-3xFLAG by 3C protease (natural protein, UniProt D3KZG3 1-1285, looked up)
chain: B1 chain
modifications: N-linked glycan at N209

Legend:
[1] = target: the molecule itself; test: single molecule pulldown
[2] = target: the molecule itself; test: cryo-EM structure

Protein | stoichiometry N [1] | stoichiometry N [2]
B1 | 2 | –
B2 | – | 2
